This is an account of results in patent WO2016073157A1 (dated 2016).

For assay [1], the target named is T1, hVEGF109 (human, UniProt P15692-4 34-135, limits assumed).
T1 construct: Numbers count on the mature 165-amino acid VEGF, not on the precursor; also called human VEGF (hVEGF 109)
T1 sequence (looked up): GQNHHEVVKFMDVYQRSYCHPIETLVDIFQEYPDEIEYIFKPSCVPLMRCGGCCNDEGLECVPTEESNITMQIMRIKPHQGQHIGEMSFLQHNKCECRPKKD
In words: phage competition ELISA (phage IC50), hVEGF109 in solution and on the plate, VEGF inferred. A general note: In an ELISA, binding on a coated surface is turned into a signal by an enzyme label.

Assay [2] has as its target T2, human Fc fusion of Ang2 protein (human, UniProt O15123 275-496, limits assumed).
T2 construct: Captured by anti-human Fc on the CM5 chip; also called hAng2 (SPR flow cell); not shown: human Fc
T2 sequence (looked up): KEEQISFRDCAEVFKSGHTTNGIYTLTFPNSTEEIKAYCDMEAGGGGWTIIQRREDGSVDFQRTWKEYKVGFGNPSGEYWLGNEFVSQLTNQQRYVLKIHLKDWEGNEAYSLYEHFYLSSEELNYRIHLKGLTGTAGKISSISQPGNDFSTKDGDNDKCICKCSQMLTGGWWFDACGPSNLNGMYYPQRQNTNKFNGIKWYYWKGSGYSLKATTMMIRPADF
In words: BIACORE T200 SPR, human Fc fusion of Ang2 captured by anti-human Fc, Fab as analyte, Ang2 inferred. For orientation: Surface plasmon resonance follows binding to a sensor surface in real time, without labels.

Assay [3] has as its target T1, hVEGF109. Put plainly: BIACORE T200 SPR, hVEGF109 coupled to CM5 chip, Fab as analyte, VEGF inferred.
Assay [4] deals with T1, hVEGF109. Put plainly: BIACORE SPR at 25 C; hVEGF109 immobilized on CM5 chip, variant clone as analyte (monovalent affinity).
The target in assay [5] is T3, His-tagged human Ang2 (hAng2his8) (human, UniProt O15123 19-496, limits assumed).
T3 construct: neither is tied to this construct; not shown: His tag (his8)
T3 sequence (looked up): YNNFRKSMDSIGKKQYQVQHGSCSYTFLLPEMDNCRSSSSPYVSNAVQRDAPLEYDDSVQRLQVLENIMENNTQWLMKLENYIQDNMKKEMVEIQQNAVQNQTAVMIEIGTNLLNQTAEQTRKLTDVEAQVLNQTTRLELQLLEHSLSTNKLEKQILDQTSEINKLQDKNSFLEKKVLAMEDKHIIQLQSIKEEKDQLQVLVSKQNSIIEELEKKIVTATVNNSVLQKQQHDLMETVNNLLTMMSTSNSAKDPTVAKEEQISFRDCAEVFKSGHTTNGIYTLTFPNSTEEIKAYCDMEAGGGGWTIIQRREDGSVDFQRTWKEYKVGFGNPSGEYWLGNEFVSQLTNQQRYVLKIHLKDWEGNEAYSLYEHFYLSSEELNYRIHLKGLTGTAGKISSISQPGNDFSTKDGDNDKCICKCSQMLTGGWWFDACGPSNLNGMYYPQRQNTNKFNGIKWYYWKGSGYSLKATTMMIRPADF
Put plainly: BIACORE SPR at 25 C; hAng2his8 immobilized on CM5 chip, Fab as analyte (monovalent affinity).

For assay [6], the target named is T1, hVEGF109. In words: BIACORE SPR at 25 C; hVEGF109 immobilized on CM5 chip, Fab as analyte (monovalent affinity).

For orientation: IC50 means the concentration that gives 50% inhibition. A higher IC50 goes with weaker potency in that assay. What is called Kd is a measure of binding affinity in units of concentration. Low readings indicate a tighter complex, high ones a looser complex.

Numbering of substitutions follows the chain as printed. Numbers in names are those of the source. Where only a bound is given, the exact number is not on record here.

B1: 5A12 4.2 LC.Q89H/LC.L93K ("D") (Fab, V domains shown)
VH: EVQLVESGGGLVQPGGSLRLSCAASGFTISDYWIHWVRQAPGKGLEWVAGITPAGGYTYYADSVKGRFTISADTSKNTAYLQMNSLRAEDTAVYYCARFVFFLPYAMDYWGQGTLVTVSS
VL: DIQMTQSPSSLSASVGDRVTITCRASQFLSSFGVAWYQQKPGKAPKLLIYGASSLYSGVPSRFSGSGSGTDFTLTISSLQPEDFATYYCHQGLKSPLTFGQGTKVEIK
notes: 5A12 4.2 variant; Fab on phage in the IC50 assay, purified Fab in SPR
In the case of B1, in assay [1], the IC50 worked out at 3.71 nM. For the same molecule, the Kd in assay [2] is 0.259 nM; in assay [3] it was 0.675 nM.

B2: 5A12 4.2 (Fab, V domains shown)
VH: B1 VH
VL: B1 VL with H90Q, K94L
notes: also called Fab5A12 4.2
For B2, the “apparent Kd (pooled screen)” value in assay [4] came to 5 nM.

B3: 5A12 4.2 LC.Q89H (Fab, V domains shown)
VH: B1 VH
VL: B1 VL with K94L
notes: 5A12 4.2 variant; Fab on phage in the IC50 assay; also called LC-89H
In assay [1], B3 came in with an IC50 of 0.138 nM.

B4: 5A12 4.2 LC.Q89W (Fab, V domains shown)
VH: B1 VH
VL: B1 VL with H90W, K94L
notes: 5A12 4.2 variant; Fab on phage in the IC50 assay; also called LC-89W
B4: the IC50 in assay [1] amounted to 2.55 nM.

B5: 5A12 4.2.16.2 (Fab, V domains shown)
VH: B1 VH with H35Y, T58E, A106V
VL: B1 VL with A35G, H90W, K94L
notes: purified Fab as analyte in SPR; also called DAF16.2
For B5, the Kd in assay [5] was 1.51 nM; in assay [6], less than 3 pM.

B6: 5A12 4.2 LC.L93K (Fab, V domains shown)
VH: B1 VH
VL: B1 VL with H90Q
notes: 5A12 4.2 variant; Fab on phage in the IC50 assay; also called LC-93K
In turn, B6 registered an IC50 in assay [1] of 0.48 nM.

B7: 5A12 4.2 LC.L92S (Fab, V domains shown)
VH: B1 VH
VL: B1 VL with H90Q, L93S, K94L
notes: 5A12 4.2 variant; Fab on phage in the IC50 assay; also called LC-92S
Molecule B7 came in with an IC50 in assay [1] of 27.7 nM.

B8: 5A12 4.2 LC.A34N (Fab, V domains shown)
VH: B1 VH
VL: B1 VL with A35N, H90Q, K94L
notes: 5A12 4.2 variant; Fab on phage in the IC50 assay; also called LC-34N
In assay [1], B8 came in with an IC50 of 221 nM.
